Consider 3 molecules from US20160347802A1 (MAX PLANCK GESELLSCHAFT ZUR FOERDERUNG DER WISSENSCHAFTEN E …, published 2016).

Series [1] concerns the molecule itself. The series can be described thus: AVEXIS, pentameric prey zebrafish DraxinB on bait zDraxinB.
Series [2] deals with the molecule itself. The series can be described thus: AVEXIS, prey on bait zDraxinB, upper value; white = No binding.
The target of series [3] is T1, human DRAXIN, AVEXIS prey or bait protein (human, UniProt Q8NBI3 26-349).
T1 construct: It was tested in both bait and prey orientations
T1 sequence: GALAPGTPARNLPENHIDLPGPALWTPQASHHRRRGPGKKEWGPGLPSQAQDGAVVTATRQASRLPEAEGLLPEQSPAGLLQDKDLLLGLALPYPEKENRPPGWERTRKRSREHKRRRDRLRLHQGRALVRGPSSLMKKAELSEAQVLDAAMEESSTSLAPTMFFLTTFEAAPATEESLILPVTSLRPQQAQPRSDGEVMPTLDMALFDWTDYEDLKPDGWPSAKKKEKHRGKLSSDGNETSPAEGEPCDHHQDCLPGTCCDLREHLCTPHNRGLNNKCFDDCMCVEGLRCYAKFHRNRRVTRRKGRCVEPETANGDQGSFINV
The series can be described thus: AVEXIS, pentameric prey zebrafish DraxinB on bait hDRAXIN.

In series [4] the target is T2, zebrafish DraxinA, AVEXIS prey or bait protein (zebrafish, UniProt Q4V9H3 24-360).
T2 construct: Prey and bait forms of the same protein are kept as one molecule; Preys are pentameric except in the monomeric-prey experiments; also called DraxinA prey protein
T2 chain: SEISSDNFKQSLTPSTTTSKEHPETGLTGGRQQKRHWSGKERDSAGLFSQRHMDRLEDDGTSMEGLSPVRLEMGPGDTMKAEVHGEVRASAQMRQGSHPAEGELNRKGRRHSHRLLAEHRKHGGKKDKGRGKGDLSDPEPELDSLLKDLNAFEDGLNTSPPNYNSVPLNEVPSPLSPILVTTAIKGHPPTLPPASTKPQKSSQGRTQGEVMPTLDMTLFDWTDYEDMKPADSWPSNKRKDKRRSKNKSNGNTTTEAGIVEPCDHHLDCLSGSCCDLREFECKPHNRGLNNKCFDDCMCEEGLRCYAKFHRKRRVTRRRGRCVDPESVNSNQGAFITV
Put plainly: AVEXIS, prey on bait zDraxinA, upper value; white = No binding.

Series [5] deals with T2, zebrafish DraxinA, AVEXIS prey or bait …. Put plainly: AVEXIS, prey on bait zDraxinA, lower value; white = No binding.
Series [6] shares this target. Put plainly: AVEXIS, pentameric prey zebrafish DraxinB on bait zDraxinA.
Series [7] deals with the molecule itself. The series can be described thus: AVEXIS, prey on bait zDraxinB, lower value; white = No binding.
The target of series [8] is T3, human Netrin1, recombinant AVEXIS protein (biotinylated when immobilised) (human, UniProt O95631 25-604).
T3 construct: also called NTN1
The series can be described thus: AVEXIS, prey on bait NTN1; white = No binding. An excerpt:
(§1) The Matn4-bait served as an internal prey-protein control and was used for normalization of the A486 nm values; conditioned medium (CM) serves as negative control; n=3.

Series [9] deals with T4, human Netrin-4, AVEXIS protein (human, UniProt Q9HB63 19-628).
T4 construct: not shown: AVEXIS tag (bait or prey)
T4 sequence (looked up): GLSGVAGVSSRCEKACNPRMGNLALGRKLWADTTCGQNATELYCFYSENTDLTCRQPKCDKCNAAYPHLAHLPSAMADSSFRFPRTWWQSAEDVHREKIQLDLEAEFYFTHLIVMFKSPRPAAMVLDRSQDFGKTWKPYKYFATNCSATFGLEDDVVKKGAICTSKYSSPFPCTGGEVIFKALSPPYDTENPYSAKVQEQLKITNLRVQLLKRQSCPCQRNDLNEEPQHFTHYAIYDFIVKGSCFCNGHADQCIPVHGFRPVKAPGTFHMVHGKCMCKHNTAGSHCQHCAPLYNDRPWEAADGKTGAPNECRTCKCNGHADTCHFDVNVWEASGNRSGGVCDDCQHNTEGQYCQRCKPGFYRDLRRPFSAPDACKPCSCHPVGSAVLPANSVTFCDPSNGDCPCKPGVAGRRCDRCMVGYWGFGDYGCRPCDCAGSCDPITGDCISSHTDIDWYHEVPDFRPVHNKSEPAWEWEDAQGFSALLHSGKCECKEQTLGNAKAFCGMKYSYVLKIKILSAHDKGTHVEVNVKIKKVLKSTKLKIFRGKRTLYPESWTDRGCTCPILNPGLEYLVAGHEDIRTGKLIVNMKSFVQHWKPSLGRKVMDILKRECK
The series can be described thus: AVEXIS, prey NTN3 on bait NTN4.
Excerpt: as §1

Series [10] concerns the molecule itself. The series can be described thus: AVEXIS, prey NTN3 on bait NTN3.
Excerpt: as §1

Series [11] deals with the molecule itself. The series can be described thus: AVEXIS, prey on bait NTN3; white = No binding.
Excerpt: as §1

Series [12] concerns the target T4, human Netrin-4, AVEXIS protein. Put plainly: AVEXIS, prey on bait NTN4; white = No binding.
Excerpt: as §1

Series [13] concerns the target T3, human Netrin1, recombinant AVEXIS …. The series can be described thus: AVEXIS, prey NTN1 on bait NTN3.
Excerpt: as §1

Series [14] concerns the target T5, Matn4 ECD, mono-biotinylated bait protein (positive control).
T5 construct: extracellular domain; also called Matn4-bait
The series can be described thus: AVEXIS, prey on bait Matn4 (+), positive control for the prey; dark = Binding.
Excerpt: as §1

Series [15] concerns the target T6, human Netrin-G2, AVEXIS protein (human, UniProt Q96CW9 18-507).
T6 construct: not shown: AVEXIS tag (bait or prey)
T6 sequence (looked up): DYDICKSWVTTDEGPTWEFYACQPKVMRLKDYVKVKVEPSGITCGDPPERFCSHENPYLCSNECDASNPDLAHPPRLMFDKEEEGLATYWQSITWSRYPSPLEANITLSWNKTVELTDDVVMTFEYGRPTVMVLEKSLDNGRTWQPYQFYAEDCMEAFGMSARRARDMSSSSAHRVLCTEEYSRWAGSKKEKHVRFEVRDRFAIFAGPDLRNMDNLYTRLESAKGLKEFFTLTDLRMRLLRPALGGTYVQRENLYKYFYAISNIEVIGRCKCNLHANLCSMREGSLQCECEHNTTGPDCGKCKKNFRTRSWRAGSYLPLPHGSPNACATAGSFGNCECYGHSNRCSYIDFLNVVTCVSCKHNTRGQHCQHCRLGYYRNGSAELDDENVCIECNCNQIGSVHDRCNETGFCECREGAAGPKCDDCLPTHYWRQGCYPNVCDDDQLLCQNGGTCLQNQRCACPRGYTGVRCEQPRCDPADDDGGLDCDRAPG
The series can be described thus: AVEXIS, prey on bait NTNG2; white = No binding.
Excerpt: as §1

The target in series [16] is T7, human Netrin-G1, AVEXIS protein (human, UniProt Q9Y2I2 29-510).
T7 construct: not shown: AVEXIS tag (bait or prey)
T7 sequence (looked up): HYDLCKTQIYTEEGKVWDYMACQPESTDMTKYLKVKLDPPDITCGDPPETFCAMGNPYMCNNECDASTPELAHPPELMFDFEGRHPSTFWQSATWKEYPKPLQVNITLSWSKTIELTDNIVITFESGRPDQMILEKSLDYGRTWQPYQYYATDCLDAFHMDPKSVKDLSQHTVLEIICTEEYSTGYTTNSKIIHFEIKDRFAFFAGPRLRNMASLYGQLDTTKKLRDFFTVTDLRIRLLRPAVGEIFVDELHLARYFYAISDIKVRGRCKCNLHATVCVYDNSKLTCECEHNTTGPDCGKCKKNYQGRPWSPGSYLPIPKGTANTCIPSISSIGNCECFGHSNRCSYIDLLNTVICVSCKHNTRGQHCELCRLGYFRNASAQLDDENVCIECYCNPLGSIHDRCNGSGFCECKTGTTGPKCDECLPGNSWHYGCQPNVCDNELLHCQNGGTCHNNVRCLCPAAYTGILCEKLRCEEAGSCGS
Put plainly: AVEXIS, prey on bait NTNG1; white = No binding.
Excerpt: as §1

In series [17] the target is T8, zebrafish Netrin1a, AVEXIS bait or prey protein (zebrafish).
T8 construct: Prey and bait forms are kept as one molecule; also called Ntn1a; Netrin1a bait
Put plainly: AVEXIS competition: Netrin1a bait preincubated with monomeric DCC prey, Draxin added 30 min after the prey.

Series [18] concerns the target T8, zebrafish Netrin1a, AVEXIS bait or prey …. Put plainly: AVEXIS competition: Netrin1a bait, Unc5b prey, purified Draxin as inhibitor.
Excerpt: (§2) The procedure of the competition assay is based on the AVEXIS assay.
For series [19] the target is unchanged. The series can be described thus: AVEXIS competition: Netrin1a bait, monomeric DCC prey, Draxin added together with the prey.
Excerpt: as §2
In order to do so we carried out an AVEXIS based competition assay and tested three different settings (FIG. 9A).
The target is the same in series [20]. The series can be described thus: AVEXIS competition: Netrin1a bait, DCC prey, purified Draxin as inhibitor.
Excerpt: as §2
For series [21] the target is unchanged. The series can be described thus: AVEXIS competition: Netrin1a bait, monomeric DCC prey, Draxin added 30 min before the prey.

B1: zebrafish DraxinB, AVEXIS protein (ligand)
chain: TNTHHNSPMEVFSENIIIPPKPEASIHHHTHQRTDRGRKERMTASQLRERPRIAIFHTQNEGPDLEGLSPVRLEMEPADKRRVMTPRKKTFMGSDSLIQEKMNISPGAETPEKAMRRPTVRKVFGGHITRAPHEEESLASGKKRRVSFDQRLNKASFGSPTEPVLPAATVGTFILPITAAVDGNPNPSSEPQVRRYLGGDVAPTFNMALFDWTDYEDMRPGDKKQYSKKQGSEKQATQSPSTGLVRLTSENNVCKHHLDCLPGSCCNLRKHVCELHNRGFNNKCYDSCMCEEGLRCYAKSHRHYRITRKKGQCVDPEDLNHAVSRWMQM
Regarding B1, the binding result in [1], in series [3] and in series [6] was “no binding” each time. In addition, the A486nm in series [2] was determined as 0.057; in series [4], 0.061; in series [5] it was 0.056; in [7] it was 0.059.

B2: human Netrin-3, AVEXIS protein (ligand)
chain: not shown
notes: not shown: AVEXIS tag (bait or prey)
As for B2, the A486nm in series [8] came out at 0.068; in series [11], 0.068; in series [12] it was 0.064; in series [14], 0.224; in series [15], 0.06; in series [16] it was 0.069. For the same molecule, the binding result in series [9], in series [10] and in series [13] was “no binding” each time.

B3: purified His-tagged full-length zebrafish Draxin protein (Draxin-CD4d3+4-6XHis) (ligand)
chain: T2 chain
notes: Expressed in HEK293-6E cells and purified on HisTrap HP; also called purified full length DraxinA; purified DraxinA; not shown: rat Cd4d3+4 tag and 6xHis
Regarding B3, the “IC50 (read off the curve)” value in [17] was about 20 nM; in series [18] it was about 10 nM; in series [19], about 10 nM; in [20] it was about 70 nM; in [21], about 7 nM.
